Test results taken from patent WO2008073463A2 (dated 2008).

B1: cynomolgus monkey IL-13 (NHP IL-13), recombinant (ligand)
chain: SPVPPSTALKELIEELVNITQNQKAPLCNGSMVWSINLTAGVYCAALESLINVSGCSAIEKTQRMLNGFCPHKVSAGQFSSLRVRDTKIEVAQFVKDLLVHLKKLFREGQFN
notes: also called non-human primate IL-13; cynomolgus IL-13
B6: soluble human IL-13 receptor alpha2 with a human IgG1 Fc tail (sIL13Rα2-Fc) (Fc fusion, UniProt Q14627 27-343, looked up, not shown: a dimerising Fc or GST)
chain: DTEIKVNPPQDFEIVDPGYLGYLYLQWQPPLSLDHFKECTVEYELKYRNIGSETWKTIITKNLHYKDGFDLNKGIEAKIHTLLPWQCTNGSEVQSSWAETTYWISPQGIPETKVQDMDCVYYNWQYLLCSWKPGIGVLLDTNYNLFYWYEGLDHALQCVDYIKADGQNIGCRFPYLEASDYKDFYICVNGSSENKPIRSSYFTFQLQNIVKPLPPVYLTFTRESSCEIKLKWSIPLGPIPARCFDYEIEIREDDTTLVTATVENETYTLKTTNETRQLCFVVRSKVNIYCSDDGIWSEWSDKQCWEGEDLSKKTLLR

Experiments:
[1] = biological target: B6; assay: not described
[2] = biological target: B1; assay: SPR (BIACORE), antibody captured on goat anti-human IgG Fc, NHP-IL-13 0.09-600 nM, 1:1 model, 22.5 C
[3] = biological target: B1; assay: SPR (BIACORE), Kd = kd / ka
[4] = biological target: native human IL-13 (crude preparation from activated human cord blood Th2 cells) (human, UniProt P35225 34-146); assay: cell-based or functional assay
native human IL-13 (crude preparation from activated human cord blood Th2 cells), sequence (P35225 other isoform, or with tags, fused parts or gaps): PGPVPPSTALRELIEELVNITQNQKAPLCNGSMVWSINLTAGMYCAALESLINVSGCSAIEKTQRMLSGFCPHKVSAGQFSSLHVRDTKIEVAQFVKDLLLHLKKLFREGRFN

[5] = biological target: B1; assay: cell-based or functional assay

**Q.** Does B1 bind [1]?
**A.** binds

B2: humanized MJ 2-7 V2.11 IgG1 with a mutated CH2 domain (antibody, V domains shown)
VH: EVQLVESGGGLVQPGGSLRLSCAASGFNIKDTYIHWVRQAPGKGLEWIGRIDPANDNIKYDPKFQGRFTISADNAKNSAYLQMNSLRAEDTAVYYCARSEENWYDFFDYWGQGTLVTVSS
VL: DIQMTQSPSSLSASVGDRVTITCRSSQSIVHSNGNTYLEWYQQKPGKAPKLLIYKVSNRFSGVPSRFSGSGSGTDFTLTISSLQPEDFATYYCFQGSHIPYTFGGGTKVEIKR
notes: 'QSΓVΉS' read as QSIVHS; also called huMJ 2-7 V2.11; hMJ2-7 V2-11
**Q.** For B2, which koff [2] is on record?
**A.** 0.000889 s⁻¹

**Q.** And the kon [2]?
**A.** 2.05e+07 M⁻¹ s⁻¹

**Q.** And the Kd [3]?
**A.** 43 pM

**Q.** What about the “IC50, STAT6 phosphorylation in HT-29 cells (0.3 ng/ml native human IL-13)” value (from here on “IC50, STAT6 phosphorylation”) [4] of the same binder?
**A.** 520 pM

B3: humanized MJ 2-7 V2 (hMJ 2-7 VH V2 with hMJ 2-7 VL V2) (antibody, human IgG1, V domains shown)
VH: EVQLVESGGGLVQPGGSLRLSCAASGFNIKDTYIHWVRQAPGKGLEWVARIDPANDNIKYDPKFQGRFTISRDNAKNSLYLQMNSLRAEDTAVYYCARSEENWYDFFDYWGQGTLVTVSS
VL: DIQMTQSPSSLSASVGDRVTITCRSSQSIVHSNGNTYLEWYQQKPGKAPKLLIYKVSNRFSGVPSRFSGSGSGTDFTLTISSLQPEDFATYYCFQGSHIPYTFGGGTKVEIKR
**Q.** For B3, which “concentration for half-maximal inhibition of native human IL-13 bioactivity, against murine MJ2-7” value [4] is on record?
**A.** ~110 fold greater than murine MJ2-7

B4: mouse monoclonal antibody C65 (antibody, V domains shown)
VH: QVQLKESGPGLVAPSQSLSITCTVSGFSLTGYGVNWVRQPPGKGLEWLGIIWGDGSTDYNSALKSRLIINKDNSKSQVFLKMNSLQTDDTARYFCARDKTFYYDGFYRGRMDYWGQGTSVTVSS
VL: DVQMIQSPSSLSASLGDIVTMTCQASQGTSINLNWFQQKPGKAPKLLIFGASNLEDGVPSRFSGSRYGTNFTLTISSLEDEDMATYFCLQHSYLPWTFGGGTKLEIK
**Q.** For B4, which “STAT6 phosphorylation in HT-29 cells (0.3 ng/ml native human IL-13)” value [4] is on record?
**A.** ~20 fold less active

**Q.** What about the “monocyte CD23 expression (3 ng/ml NHP IL-13)” value [5] of the same binder?
**A.** ~20 fold less active than MJ2-7 and sIL-13Rα2-Fc

B5: mouse monoclonal antibody MJ 2-7 (antibody, mouse IgG1, V domains shown)
VH: EVQLQQSGAELVKPGASVKLSCTGSGFNIKDTYIHWVKQRPEQGLEWIGRIDPANDNIKYDPKFQGKATITADTSSNTAYLQLNSLTSEDTAVYYCARSEENWYDFFDYWGQGTTLTVSS
VL: DVLMTQTPLSLPVSLGDQASISCRSSQSIVHSNGNTYLEWYLQKPGQSPKLLIYKVSNRFSGVPDRFSGSGSGTDFTLKISRVEAEDLGVYYCFQGSHIPYTFGGGTKLEIK
**Q.** With B5 as the binder, how does the “IC50, STAT6 phosphorylation” value [4] read?
**A.** 480 pM

**Q.** What about the “IC50, inhibition of STAT6 phosphorylation (native human IL-13 at 1 ng/ml)” value [4] of the same binder?
**A.** ~293 pM

**Q.** And the “IC50, tenascin C production by BEAS-2B cells (3 ng/ml native human IL-13)” value [4]?
**A.** ~100 pM

**Q.** And the “IC50, inhibition of CD23 expression (non-human primate IL-13 at 1 ng/ml)” value [5]?
**A.** ~242 pM

**Q.** Which “IC50, STAT6 phosphorylation” value [4] does the source give for B6 here?
**A.** 330 pM
